# Results reported in PMC11326118, “Oxamic transcarbamylase of Escherichia coli is encoded by the three genes allFGH (formerly fdrA, ylbE, and ylbF)” (Applied and Environmental Microbiology, 2024).
# Key:
# [1] = substrate: NC(=O)C(=O)O; assay: oxamate consumption by HPLC, reverse reaction; format: biochemical, Escherichia coli; details: co-substrate carbamoyl phosphate, 10 mM MgCl2, 100 mM Tris pH 9.0, 30 °C, 100 nM enzyme
# Source text: (§1) oxamate consumption by HPLC, reverse reaction on AllFGH (AllF-AllG-AllH; FdrA-YlbE-YlbF), oxamic transcarbamylase (OXTCase)
# [2] = substrate: NC(=O)OP(=O)(O)O; assay: oxamate consumption by HPLC, reverse reaction; format: biochemical, Escherichia coli; details: oxamate fixed at 40 mM, 10 mM MgCl2, 100 mM Tris pH 9.0, 30 °C, 100 nM enzyme
# Source text: as §1
protein,measurement,setting,value
"AllFGH (AllF-AllG-AllH; FdrA-YlbE-YlbF), oxamic transcarbamylase (OXTCase) (Escherichia coli K-12) (protein, full-length subunits co-expressed from pET30b (pMB191) in E. coli BL21(DE3); 6xHis at N-terminus of AllF and C-terminus of AllH, tags kept; 62, 46, 31 kDa; 555, 419, 271 aa) chain 1: MIHAFIKKGCFQDSVSLMIISRKLSESENVDDVSVMMGTPANKALLDTTGFWHDDFNNATPNDICVAIRSEAADAGIAQAIMQQLEEALKQLAQGSGSSQALTQVRRWDSACQKLPDANLALISVAGEYAAELANQALDRNLNVMMFSDNVTLEDEIQLKTRAREKGLLVMGPDCGTSMIAGTPLAFANVMPEGNIGVIGASGTGIQELCSQIALAGEGITHAIGLGGRDLSREVGGISALTALEMLSADEKSEVLAFVSKPPAEAVRLKIVNAMKATGKPTVALFLGYTPAVARDENVWFASSLDEAARLACLLSRVTARRNAIAPVSSGFICGLYTGGTLAAEAAGLLAGHLGVEADDTHQHGMMLDADSHQIIDLGDDFYTVGRPHPMIDPTLRNQLIADLGAKPQVRVLLLDVVIGFGATADPAASLVSAWQKACAARLDNQPLYAIATVTGTERDPQCRSQQIATLEDAGIAVVSSLPEATLLAAALIHPLSPAAQQHTPSLLENVAVINIGLRSFALELQSASKPVVHYQWSPVAGGNKKLARLLERLQ chain 2: MFTSVAQANAAVIEQIRRARPHWLDVQPASSLISELNEGKTLLHAGPPMRWQEMTGPMKGACVGACLFEGWAKDEAQALAILEQGEVNFIPCHHVNAVGPMGGITSASMPMLVVENVTDGNRAYCNLNEGIGKVMRFGAYGEDVLTRHRWMRDVLMPVLSAALGRMERGIDLTAMMAQGITMGDEFHQRNIASSALLMRALAPQIARLDHDKQHIAEVMDFLSVTDQFFLNLAMAYCKAAMDAGAMIRAGSIVTAMTRNGNMFGIRVSGLGERWFTAPVNTPQGLFFTGFSQEQANPDMGDSAITETFGIGGAAMIAAPGVTRFVGAGGMEAARAVSEEMAEIYLERNMQLQIPSWDFQGACLGLDIRRVVETGITPLINTGIAHKEAGIGQIGAGTVRAPLACFEQALEALAESMGIG chain 3: MTIIHPLLASSSAPNYRQSWRLAGVWRRAINLMTESGELLTLHRQGSGFGPGGWVLRRAQFDALCGGLCGNERPQVVAQGIRLGRFTVKQPQRYCLLRITPPAHPQPLAAAWMQRAEETGLFGPLALAASDPLPAELRQFRHCFQAALNGVKTDWRHWLGKGPGLTPSHDDTLSGMLLAAWYYGALDARSGRPFFACSDNLQLVTTAVSVSYLRYAAQGYFASPLLHFVHALSCPKRTAVAIDSLLALGHTSGADTLLGFWLGQQLLQGKP",Km,[1],36.9 mM
same,kcat,[1],58.5 s⁻¹
same,kcat/Km,[1],1600 M⁻¹ s⁻¹
same,Km,[2],1.3 mM
same,kcat,[2],35.5 s⁻¹
same,kcat/Km,[2],27300 M⁻¹ s⁻¹
